Data as given in patent US20250340646A1 (ELPIS BIOPHARMACEUTICALS, published 2025).
Read-outs that look alike come from different tables or passages of the source.

Columns and labels:
[1] = target: T1, human PD-L1-HIS tagged recombinant protein (human, UniProt Q9NZQ7 19-238); test: SPR, IgG on Protein A, PD-L1-HIS analyte
T1 construct: also called hPD-L1-HIS; PD-L1 HIS tagged protein
Experimental: (§1) The assay was run with Biacore T200 control software version 2.0. For each cycle, 1 μg/mL of anti-hPD-L1-IgG was captured for 60 seconds at flow rate of 10 μl/min on flow cell 2 in 1×HBSP buffer on Protein A sensor chip. […] The flow cells were then regenerated with Glycine pH 2 for 60 seconds at flow rate of 30 μl/min. […] The specific binding response unit was derived from subtraction of binding to reference flow cell 1 from antibody captured flow cell 2.

[2] = target: T2, recombinant His-tagged human IL-2Rβ (human, UniProt P14784 27-240, limits assumed); test: ELISA, coated His-tagged IL-2Rβ
T2 construct: also called IL-2Rβ-HIS; IL-15Rβ-HIS
T2 sequence (looked up): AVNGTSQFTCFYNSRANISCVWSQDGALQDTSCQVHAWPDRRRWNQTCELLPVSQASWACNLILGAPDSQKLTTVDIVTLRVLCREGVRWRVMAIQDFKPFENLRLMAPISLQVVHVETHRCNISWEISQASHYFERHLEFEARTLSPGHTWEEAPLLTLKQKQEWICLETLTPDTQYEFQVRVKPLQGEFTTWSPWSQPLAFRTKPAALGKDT
Experimental: For monovalent IL-2 Fc-fusion proteins, recombinant His-tagged human IL-2Rα and IL-2Rβ were added in 25 μL of 1×PBS to wells of 384-well plate and incubated overnight at 4° C. to coat the plates. Plates were washed three times with 0.05% Tween20/1×PBS. Plates were blocked with 100 μL of SuperBlock for 1 hr at RT and then washed 3 times with 0.05% Tween20/1×PBS. IL-2 mutants were diluted in 0.05% Tween 20/1×PBS from 1000 nM to 0 nM and added to plates for 2 hrs at room temperature. Plates were then washed 6 times with 0.05% Tween20/1×PBS. Anti-HisTag-HRP was diluted 1:5000 in 0.05% Tween20/1×PBS and added to plates for 1 hr at RT. Plates were then washed 6 times with 0.05% Tween 20/1×PBS, and TMB was added to develop blue color. Reactions were stopped with 2N […] and light absorbance at 450 nm was read on a BioTek plate reader. Absorbance versus IL-2 concentration is graphed for human IL-2Rα and IL-2Rβ. […]

[3] = target: PD-L1 on PD-L1 aAPC/CHOK1 cells (Promega J1250); test: cell-based or functional assay
biotinylated PD-L1 = biotinylated PD-L1 (Homo sapiens (Human), UniProt Q9NZQ7 19-238, biotinylated; site not stated); test: ELISA, anti-human Fc capture, biotinylated PD-L1
Experimental: A 384 well plate was immobilized with anti-human Fc at final concentration of 2 μg/mL in 1×PBS in total volume of 25 μL per well. The plate was incubated overnight at 4C followed by blocking with 80 μL of superblock per well for 1 hour. […] In between each step, the plate was washed 3 times with 1×PBST in a plate washer. The plate was then developed with 25 μL of TMB substrate for 5 min and stopped by adding 25 μL of 2N sulfuric acid. The plate was read at OD450 nm Biotek plate reader and the binding correlation was plotted with Prism 8.1 software. The ELISA binding assays of the antibodies to IL-2Rα and IL-2Rβ receptors were performed as described in Example 6.

[4] = target: T1, human PD-L1-HIS tagged recombinant …; test: SPR, Protein A capture, PD-L1-HIS analyte
Experimental: as §1, with “anti-hPD-L1/IL-2” for “anti-hPD-L1-IgG”, “μL/min” for “μl/min”, “pH2” for “pH 2”, “μL/min.” for “μl/min.”

[5] = target: T3, PD-L1 biotinylated (PD-1/PD-L1 TR-FRET assay kit, BPS 72038) (Homo sapiens (Human), UniProt Q9NZQ7 19-238, biotinylated; site not stated); test: HTRF competition, competitor PD-1-Eu
T3 construct: Kit reagent
Experimental: Briefly, 1× Immuno buffer 1 was made. […] For each well in 384-well plate, serial diluted scFvs and regents were added according to manufacturer's recommended volume. Samples were incubated at room temperature for 1.5 hours then the fluorescent intensity was read with Biotek Neo2 plate reader using manufacture's instrument setting for the assay.

[6] = target: T2, recombinant His-tagged human IL-2Rβ; test: SPR, Protein A capture, IL-2Rβ-HIS analyte
Experimental: as §1, with “anti-hPD-L1/IL-2” for “anti-hPD-L1-IgG”, “μL/min” for “μl/min”, “pH2” for “pH 2”, “μL/min.” for “μl/min.”

[7] = target: T4, full-length human PD-L1 on K562 cells (human, UniProt Q9NZQ7 19-290); test: FACS, PD-L1/K562 cells
T4 construct: also called PD-L1/K562; cell surface human PD-L1
Experimental: (§2) Cells were spun down at 1200 rpm for 5 minutes at 4° C. to remove primary antibodies. Cells were then washed once with 200 μL of full medium per well. […] Samples were spun down at 1200 rpm for 5 minutes at 4° C. and washed twice with 200 μL of 1×PBS per well. Samples were reconstituted in 200 μL of 1×PBS and were read on Attune NxT cytometer.
The production, the binding, and all of the characterization assays for selected affinity matured scFv clones were performed as described above.

[8] = target: T4, full-length human PD-L1 on K562 cells; test: FACS, PD-L1/K562 cells; remark: listed apart in the source
Experimental: as §2

Binder | Kd [1] [nM] | EC50 [2] [nM] | NFAT reporter EC50 [3] [nM] | EC50 (biotinylated PD-L1) [nM] | Kd [4] [nM] | IC50 [5] [nM] | Kd [6] [nM] | EC50 [7] [nM] | other results
anti-PD-L1 IgG antibody EP488/EP489 (2018EP171-H02) (antibody, V domains shown) VH: QVQLVQSGAEVKKPGSSVKVSCKASGGTFSSYAISWVRQAPGQGLEWMGGIIPIFGTANYAQKFQGRVTITADESTSTAYMELSSLRSEDTAVYYCARDKGYGSGWRGDYWGQGTLVTVSS VL: QSVLTQPPSASGTPGQRVTISCSGSYSNIGSNFVNWYQQLPGTAPKLLIHFNNQRPSGVPDRFSGSRSGTSASLAISGLQSEDEADYFCSTWDDSLKGPIFGGGTKLTVLG | 9.5 |  |  |  |  |  |  |  | 
IL-2/anti-PD-L1 scFv Fc EP290/EP326 (bispecific antibody, IL2-Fc knob with 2019EP69-F03 scFv-Fc hole (EP326)) chain 1: not shown chain 2: QVQLVQSGAEVKKPGSSVKVSCKASGGTFSSYAISWVRQAPGQGLEWMGGIIPIFGTANYAQKFQGRVTITADESTSTAYMELSSLRSEDTAVYYCARDKWYGSAWRGDYWGQGTLVTVSSGGGGSGGGGSGGGGSQSVLTQPPSASGTPGQRVTISCSGSYSNIGSNFVNWYQQLPGTAPKLLIHFNNQRPSGVPDRFSGSRSGTSASLAISGLQSEDEADYFCSTWDDSLKGPIFGGGTKLTVLDKTHTCPPCPAPEAAGGPSVFLFPPKPKDTLMISRTPEVTCVVVDVSHEDPEVKFNWYVDGVEVHNAKTKPREEQYNSTYRVVSVLTVLHQDWLNGKEYKCKVSNKALGAPIEKTISKAKGQPREPQVCTLPPSRDELTKNQVSLSCAVKGFYPSDIAVEWESNGQPENNYKTTPPVLDSDGSFKLVSKLTVDKSRWQQGNVFSCSVMHEALHNHYTQKSLSLSPGK |  | 4.01 | 2.3 | 0.141 | 0.464 | 176 | 57.4 |  | 
IL-2/anti-PD-L1 scFv Fc EP412/EP326 (bispecific antibody, IL2 with T3A/K35L/R38D/F42R) chain 1: not shown chain 2: QVQLVQSGAEVKKPGSSVKVSCKASGGTFSSYAISWVRQAPGQGLEWMGGIIPIFGTANYAQKFQGRVTITADESTSTAYMELSSLRSEDTAVYYCARDKWYGSAWRGDYWGQGTLVTVSSGGGGSGGGGSGGGGSQSVLTQPPSASGTPGQRVTISCSGSYSNIGSNFVNWYQQLPGTAPKLLIHFNNQRPSGVPDRFSGSRSGTSASLAISGLQSEDEADYFCSTWDDSLKGPIFGGGTKLTVLDKTHTCPPCPAPEAAGGPSVFLFPPKPKDTLMISRTPEVTCVVVDVSHEDPEVKFNWYVDGVEVHNAKTKPREEQYNSTYRVVSVLTVLHQDWLNGKEYKCKVSNKALGAPIEKTISKAKGQPREPQVCTLPPSRDELTKNQVSLSCAVKGFYPSDIAVEWESNGQPENNYKTTPPVLDSDGSFKLVSKLTVDKSRWQQGNVFSCSVMHEALHNHYTQKSLSLSPGK |  | 2.18 | 2.61 | 0.156 | 0.593 | 134 | 12000 |  | 
IL-2/anti-PD-L1 scFv Fc EP415/EP326 (bispecific antibody, IL2 EP337) chain 1: not shown chain 2: QVQLVQSGAEVKKPGSSVKVSCKASGGTFSSYAISWVRQAPGQGLEWMGGIIPIFGTANYAQKFQGRVTITADESTSTAYMELSSLRSEDTAVYYCARDKWYGSAWRGDYWGQGTLVTVSSGGGGSGGGGSGGGGSQSVLTQPPSASGTPGQRVTISCSGSYSNIGSNFVNWYQQLPGTAPKLLIHFNNQRPSGVPDRFSGSRSGTSASLAISGLQSEDEADYFCSTWDDSLKGPIFGGGTKLTVLDKTHTCPPCPAPEAAGGPSVFLFPPKPKDTLMISRTPEVTCVVVDVSHEDPEVKFNWYVDGVEVHNAKTKPREEQYNSTYRVVSVLTVLHQDWLNGKEYKCKVSNKALGAPIEKTISKAKGQPREPQVCTLPPSRDELTKNQVSLSCAVKGFYPSDIAVEWESNGQPENNYKTTPPVLDSDGSFKLVSKLTVDKSRWQQGNVFSCSVMHEALHNHYTQKSLSLSPGK |  | 1.33 | 3.46 | 0.227 | 0.465 | 2280 | 6.17 |  | 
2018EP171-H02 scFv (scFv, V domains shown) VH: QVQLVQSGAEVKKPGSSVKVSCKASGGTFSSYAISWVRQAPGQGLEWMGGIIPIFGTANYAQKFQGRVTITADESTSTAYMELSSLRSEDTAVYYCARDKGYGSGWRGDYWGQGTLVTVSS VL: QSVLTQPPSASGTPGQRVTISCSGSYSNIGSNFVNWYQQLPGTAPKLLIHFNNQRPSGVPDRFSGSRSGTSASLAISGLQSEDEADYFCSTWDDSLKGPIFGGGTKLTVL |  |  |  |  |  |  |  | 0.25 | EC50 [8]: 0.25 nM
2019EP69-E10 scFv (scFv, V domains shown) VH: QVQLVQSGAEVKKPGSSVKVSCKASGGTFSSYAISWVRQAPGQGLEWMGGIIPIFGTANYAQKFQGRVTITADESTSTAYMELSSLRSEDTAVYYCARDKGFGSGWRGDYWGQGTLVTVSS VL: QSVLTQPPSASGTPGQRVTISCSGSYSNIGSNFVNWYQQLPGTAPKLLIHFNNQRPSGVPDRFSGSRSGTSASLAISGLQSEDEADYFCSTWDDSLKGPIFGGGTKLTVL |  |  |  |  |  |  |  | 0.207 | 
2019EP69-F02 scFv (scFv, V domains shown) VH: QVQLVQSGAEVKKPGSSVKVSCKASGGTFSSYAISWVRQAPGQGLEWMGGIIPIFGTANYAQKFQGRVTITADESTSTAYMELSSLRSEDTAVYYCARDKWYGSGWRGDYWGQGTLVTVSS VL: QSVLTQPPSASGTPGQRVTISCSGSYSNIGSNFVNWYQQLPGTAPKLLIHFNNQRPSGVPDRFSGSRSGTSASLAISGLQSEDEADYFCSTWDDSLKGPIFGGGTKLTVL |  |  |  |  |  |  |  | 2 | 
2019EP69-H10 scFv (scFv, V domains shown) VH: QVQLVQSGAEVKKPGSSVKVSCKASGGTFSSYAISWVRQAPGQGLEWMGGIIPIFGTANYAQKFQGRVTITADESTSTAYMELSSLRSEDTAVYYCARDKWFGSGWRGDYWGQGTLVTVSS VL: QSVLTQPPSASGTPGQRVTISCSGSYSNIGSNFVNWYQQLPGTAPKLLIHFNNQRPSGVPDRFSGSRSGTSASLAISGLQSEDEADYFCSTWDDSLKGPIFGGGTKLTVL |  |  |  |  |  |  |  | 0.0799 | 
anti-PD-L1 IgG antibody EP480/EP481 (2018EP164-F04) (antibody, V domains shown) VH: QVQLQQWGAGLLKPSETLSLTCAVYGGSFSGYYWSWIRQPPGKGLEWIGEINHSGSTNYNPSLKSRVTISVDTSKNQFSLKLSSVTAADTAVYYCARGRRLRYFDWAAYNWFDPWGQGTLVTVSS VL: QSALTQDPAVSVALGQTVRITCQGDSLRSHYASWYQQKPGQAPVVVVYDNSDRPSGIPDRFSGSNSGNTATLTISRVEVGDEADYYCQVWDSSSDHYVFGTGTKVEIRT | 5.73 |  |  |  |  |  |  |  | 
anti-PD-L1 IgG antibody 2018EP280-E04 (printed construct pair EP486/EP489) (antibody, V domains shown) VH: QVQLQQWGAGLLKPSETLSLTCAVYGGSFSGYYWSWIRQPPGKGLEWIGEINHIGSTNYNPSLKSRVTISVDTSNNQFSLKLSSVTAADTAVYYCARGRRLRYFDWAAYNWFDPWGQGTLVTVSS VL: QSALTQDPAVSVALGQTVRISCQGDSLRSHYASWYQQKPGQAPVVVVYDNSDRPSGIPDRFSGSNSGNTATLTISRVEVGDEADYYCQVWDSSSDHYVFGTGTKVTVLG | 2.76 |  |  |  |  |  |  |  | 
